How the values were obtained:
Experiment in all cases: split reporter
[1] = target: T1, Mpd1p (S. cerevisiae, UniProt Q12404 22-318)
T1 sequence: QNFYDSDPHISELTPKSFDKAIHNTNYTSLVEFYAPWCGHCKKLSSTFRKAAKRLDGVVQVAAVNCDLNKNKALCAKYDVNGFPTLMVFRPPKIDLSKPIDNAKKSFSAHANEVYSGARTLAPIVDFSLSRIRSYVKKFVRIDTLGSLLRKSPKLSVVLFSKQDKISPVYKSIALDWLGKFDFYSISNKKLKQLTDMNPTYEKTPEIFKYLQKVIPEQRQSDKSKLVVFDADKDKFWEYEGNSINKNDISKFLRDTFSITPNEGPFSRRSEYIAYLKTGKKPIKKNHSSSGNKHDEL

[2] = target: T2, Mpd2p (S. cerevisiae, UniProt Q99316 23-277)
T2 sequence: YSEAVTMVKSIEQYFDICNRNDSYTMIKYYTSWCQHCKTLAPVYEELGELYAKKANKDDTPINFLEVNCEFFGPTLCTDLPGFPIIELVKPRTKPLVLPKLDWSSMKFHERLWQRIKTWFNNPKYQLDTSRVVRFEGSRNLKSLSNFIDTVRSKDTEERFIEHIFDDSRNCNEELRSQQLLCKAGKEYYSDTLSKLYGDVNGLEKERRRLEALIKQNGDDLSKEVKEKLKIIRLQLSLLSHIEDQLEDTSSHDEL

[3] = target: T3, Sed4p (S. cerevisiae, UniProt P25365 1-1065)
T3 sequence: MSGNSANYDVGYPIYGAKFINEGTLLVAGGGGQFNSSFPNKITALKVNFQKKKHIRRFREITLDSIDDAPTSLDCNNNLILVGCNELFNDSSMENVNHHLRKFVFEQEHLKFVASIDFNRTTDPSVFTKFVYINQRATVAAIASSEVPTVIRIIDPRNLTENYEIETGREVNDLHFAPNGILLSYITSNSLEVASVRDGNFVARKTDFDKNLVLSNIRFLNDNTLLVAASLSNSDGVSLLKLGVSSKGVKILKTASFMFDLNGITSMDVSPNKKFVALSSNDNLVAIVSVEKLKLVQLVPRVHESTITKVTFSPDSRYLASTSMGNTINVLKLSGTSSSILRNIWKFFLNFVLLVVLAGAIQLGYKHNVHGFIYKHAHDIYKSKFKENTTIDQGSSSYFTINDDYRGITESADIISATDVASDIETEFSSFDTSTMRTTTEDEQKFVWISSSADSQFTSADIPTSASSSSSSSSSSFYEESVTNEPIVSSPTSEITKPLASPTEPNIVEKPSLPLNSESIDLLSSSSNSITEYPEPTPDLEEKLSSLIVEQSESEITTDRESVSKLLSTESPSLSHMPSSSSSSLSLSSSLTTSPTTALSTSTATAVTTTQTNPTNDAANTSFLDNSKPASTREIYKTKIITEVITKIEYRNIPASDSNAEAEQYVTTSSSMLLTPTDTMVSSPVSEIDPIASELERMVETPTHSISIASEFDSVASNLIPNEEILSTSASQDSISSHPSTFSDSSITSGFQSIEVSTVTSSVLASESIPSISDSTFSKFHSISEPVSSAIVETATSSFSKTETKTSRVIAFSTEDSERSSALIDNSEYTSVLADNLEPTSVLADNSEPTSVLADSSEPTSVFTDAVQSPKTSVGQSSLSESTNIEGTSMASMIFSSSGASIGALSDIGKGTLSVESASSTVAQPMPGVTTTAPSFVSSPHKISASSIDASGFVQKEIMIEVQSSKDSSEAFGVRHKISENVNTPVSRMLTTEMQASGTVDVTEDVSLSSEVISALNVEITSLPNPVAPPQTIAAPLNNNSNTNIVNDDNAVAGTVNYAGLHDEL

[4] = target: Cpr5p (S. cerevisiae, UniProt P35176 23-225)
Chain of Cpr5p (P35176 23-225): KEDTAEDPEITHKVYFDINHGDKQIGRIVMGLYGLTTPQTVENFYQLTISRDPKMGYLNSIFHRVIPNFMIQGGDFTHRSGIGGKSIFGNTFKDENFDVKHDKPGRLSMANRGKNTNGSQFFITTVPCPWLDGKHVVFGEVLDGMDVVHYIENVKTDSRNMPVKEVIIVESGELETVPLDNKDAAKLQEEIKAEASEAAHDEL

[5] = target: T4, Eug1p (S. cerevisiae, UniProt P32474 30-517)
T4 sequence: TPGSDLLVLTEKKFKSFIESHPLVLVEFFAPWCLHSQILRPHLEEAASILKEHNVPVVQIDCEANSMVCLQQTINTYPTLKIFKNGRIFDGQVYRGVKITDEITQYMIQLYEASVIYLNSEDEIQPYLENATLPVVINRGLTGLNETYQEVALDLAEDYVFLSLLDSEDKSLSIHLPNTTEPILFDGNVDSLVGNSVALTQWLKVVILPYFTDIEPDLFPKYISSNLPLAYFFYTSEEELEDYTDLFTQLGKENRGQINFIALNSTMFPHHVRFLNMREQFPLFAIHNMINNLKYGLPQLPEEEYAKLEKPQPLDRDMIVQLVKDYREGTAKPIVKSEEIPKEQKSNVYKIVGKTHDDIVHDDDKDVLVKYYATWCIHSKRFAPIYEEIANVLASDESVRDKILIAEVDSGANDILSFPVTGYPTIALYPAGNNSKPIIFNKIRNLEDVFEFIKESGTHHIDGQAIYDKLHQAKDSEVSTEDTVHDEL

- normalized interacting score [1]: 18%
- normalized interacting score [2]: > 40%
- normalized interacting score [3]: > 40%
- normalized interacting score [4]: > 40%
- normalized interacting score [5]: > 40%
B1: Lhs1p (natural protein)
chain: AVLGVDYGQQNIKAIVVSPQAPLELVLTPEAKRKEISGLSIKRLPGYGKDDPNGIERIYGSAVGSLATRFPQNTLLHLKPLLGKSLEDETTVTLYSKQHPGLEMVSTNRSTIAFLVDNVEYPLEELVAMNVQEIANRANSLLKDRDARTEDFVNKMSFTIPDFFDQHQRKALLDASSITTGIEETYLVSEGMSVAVNFVLKQRQFPPGEQQHYIVYDMGSGSIKASMFSILQPEDTTQPVTIEFEGYGYNPHLGGAKFTMDIGSLIENKFLETHPAIRTDELHANPKALAKINQAAEKAKLILSANSEASINIESLINDIDFRTSITRQEFEEFIADSLLDIVKPINDAVTKQFGGYGTNLPEINGVILAGGSSRIPIVQDQLIKLVSEEKVLRNVNADESAVNGVVMRGIKLSNSFKTKPLNVVDRSVNTYSFKLSNESELYDVFTRGSAYPNKTSILTNTTDSIPNNFTIDLFENGKLFETITVNSGAIKNSYSSDKCSSGVAYNITFDLSSDRLFSIQEVNCICQSENDIGNSKQIKNKGSRLAFTSEDVEIKRLSPSERSRLHEHIKLLDKQDKERFQFQENLNVLESNLYDARNLLMDDEVMQNGPKSQVEELSEMVKVYLDWLEDASFDTDPEDIVSRIREIGILKKKIELYMDSAKEPLNSQQFKGMLEEGHKLLQAIETHKNTVEEFLSQFETEFADTIDNVREEFKKIKQPAYVSKALSTWEETLTSFKNSISEIEKFLAKNLFGEDLREHLFEIKLQFDMYRTKLEEKLRLIKSGDESRLNEIKKLHLRNFRLQKRKEEKLKRKLEQEKSRNNNETESTVINSADDKTTIVNDKTTESNPSSEEDILHDEL
